This is an account of results in patent CN113912720A (BLOOD DISEASES HOSPITAL CHINESE ACADEMY OF MEDICAL SCIENCES …, dated 2022).

The target of this test is T1, 人BCMA蛋白 (on 3T3-BCMA cells) (human, UniProt Q02223 1-54).
T1 construct: extracellular domain; also called 3T3-BCMA细胞表面BCMA蛋白; CD269
T1 sequence (looked up): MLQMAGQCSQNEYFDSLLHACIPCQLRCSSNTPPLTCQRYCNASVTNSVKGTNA
The experiment in a line: Flow cytometry: PE-labelled 69G8 titrated from 400 nM to 0.025 nM on 3T3-BCMA cells; mean fluorescence fitted with GraphPad Prism 7. (Flow cytometry measures light scatter and fluorescence of single cells or particles in a stream.)

B1: 抗人BCMA单克隆抗体69G8 (antibody, V domains shown)
VH: QVQLQQSGAEVVRPGTSVKVSCKASGYAFTNYLIEWVKQRPGQGPEWIGVITPGRGDTKYNAKFAGKATLTADKSSSTAYMQLSSLTFDDSAVYFCARGTTAWFPYWGQGTLVTVSA
VL: DIVLTQSPASLTVSLGQRATISCRASKSVSTSGYSYMHWYQQKPRQPPKLLIYLASNLESGVPARFSGSGSGTDFTLNIHPVEEEDAATYYCQHSRDLPYTFGGGTKLEIKR
notes: also called 69G8抗体; PE标记抗体69G8
One may read the Kd as a measure of binding affinity in units of concentration. A low value points to tighter binding. B1 had a Kd of 13.8 nM. This lies in the double-digit nanomolar range.
